# Substitutions are numbered along the chain they refer to.
# Key:
# [1] = tested on: T1, hADAR2-D (human ADAR2 deaminase domain) (human), P78563-2; experiment: EMSA; conditions: EMSA: 20 mM Tris-HCl pH 7-7.1, 6% glycerol, 0.5 mM DTT, 60 mM KCl, 20 mM NaCl, 0.1 mM 2-mercaptoethanol, 1.5 mM EDTA, 0.003% NP-40, 160 U/ml RNasin, 100 ug/ml …
# T1 sequence: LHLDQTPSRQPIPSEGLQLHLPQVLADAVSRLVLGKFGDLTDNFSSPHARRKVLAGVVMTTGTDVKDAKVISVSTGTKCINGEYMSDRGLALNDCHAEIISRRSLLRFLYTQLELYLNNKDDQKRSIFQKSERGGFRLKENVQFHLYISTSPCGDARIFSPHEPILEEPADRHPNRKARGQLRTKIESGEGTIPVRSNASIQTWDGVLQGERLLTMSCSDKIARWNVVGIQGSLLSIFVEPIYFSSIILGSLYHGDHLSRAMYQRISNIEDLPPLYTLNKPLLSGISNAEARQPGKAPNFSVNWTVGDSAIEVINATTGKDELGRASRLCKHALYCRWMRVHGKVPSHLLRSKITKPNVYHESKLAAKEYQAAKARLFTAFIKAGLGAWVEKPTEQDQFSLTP
# [2] = tested on: T2, hADAR2-D E488Q E488Q (human), P78563-2; experiment: EMSA; conditions: N12 of top = 8-azanebularine; EMSA: 20 mM Tris-HCl pH 7-7.1, 6% glycerol, 0.5 mM DTT, 60 mM KCl, 20 mM NaCl, 0.1 mM 2-mercaptoethanol, 1.5 mM EDTA, 0.003% NP-40, 160 U/ml RNasin, 100 ug/ml …
# T2 sequence: T1 sequence with E190Q
sequence,measurement,setting,value
CAUUANGGUGGGUGGAAUAGUAUAACA / UGUUAUAGUAUCCCACCUACCCUGAUG [(e) GluR B R/G 8-azaN],Kd,[1]; N6 of top = 8-azanebularine,> 3200 nM
CCCCACAUUNGACGUUCAGUUAGUACCACCAAUGUGGGG [(c) 8-azaN],Kd,[1]; N10 = 8-azanebularine,310 nM
UUCCCCACAUUNGACGUUCAGU / ACTGAACCACCAAUGUGGGGAA [(g) 8-azaN],Kd,"[1]; N12 of top = 8-azanebularine, bottom nt 1-7 2'-deoxy",99 nM
UUCCCCACAUUNGACGUUCAGU / ACUGAACCACCAATGUGGGGAA [(h) 8-azaN],Kd,"[1]; N12 of top = 8-azanebularine, bottom nt 8-15 2'-deoxy",342 nM
UUCCCCACAUUNGACGUUCAGU / ACUGAACCACCAAUGTGGGGAA [(f) 8-azaN],Kd,"[1]; N12 of top = 8-azanebularine, bottom nt 16-22 2'-deoxy",114 nM
UUCCCCACAUUNGACGUUCAGU / ACUGAACCACCAAUGUGGGGAA [(d) 8-azaN],Kd,[1]; N12 of top = 8-azanebularine,30 nM
UUCCCCACAUUNGACGUUCAGU / ACUGAACGACCAAUGUGGGGAA [(i) 8-azaN],Kd,[2],< 5 nM
same,Kd,[1]; N12 of top = 8-azanebularine,15 nM
UUCCCCACAUUNGACGUUCAGU / ACUGAACGUCCAAUGUGGGGAA [(j) 8-azaN],Kd,[1]; N12 of top = 8-azanebularine,10 nM
UUCCCCACAUUNGACGUUCAGUUAGUACCACCAAUGUGGGGAA [(b) 8-azaN],Kd,[1]; N12 = 8-azanebularine,27 nM
